Consider twelve molecules from patent US20180273587A1 (AILERON THERAPEUTICS, published 2018).

Positions of bridges follow the written chain, without caps; N, C: chain ends. Non-standard residues stand in square brackets, D forms with d. Phe(4-tBu) = CC(C)(C)c1ccc(C[C@H](N)C(=O)O)cc1; R8 = C=CCCCCCC[C@@](C)(N)C(=O)O; S5 = C=CCCC[C@](C)(N)C(=O)O

Broadly, the Ki is a measure of affinity in units of concentration, obtained from inhibition or displacement. Low values mean a stronger hold on the target, high ones a looser hold on the target.

Common to all, as to test: Ki; method not stated; unit not printed (nM per Table 6)
For assay [1], the target named is T1, BCL-XL (UniProt Q07817 1-209).
T1 construct: Target of the Ki columns
T1 sequence (Q07817 1-209): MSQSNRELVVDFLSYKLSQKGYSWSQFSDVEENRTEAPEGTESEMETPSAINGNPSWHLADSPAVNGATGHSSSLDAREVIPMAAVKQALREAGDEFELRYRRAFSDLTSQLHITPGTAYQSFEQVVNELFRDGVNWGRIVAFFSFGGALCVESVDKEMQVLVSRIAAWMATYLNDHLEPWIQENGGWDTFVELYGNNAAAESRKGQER

Assay [2] deals with T2, MCL-1 (UniProt Q07820 172-327, limits assumed).
T2 construct: Target of the Ki columns; also called Myeloid cell leukemia 1
T2 sequence (Q07820 172-327 limits assumed): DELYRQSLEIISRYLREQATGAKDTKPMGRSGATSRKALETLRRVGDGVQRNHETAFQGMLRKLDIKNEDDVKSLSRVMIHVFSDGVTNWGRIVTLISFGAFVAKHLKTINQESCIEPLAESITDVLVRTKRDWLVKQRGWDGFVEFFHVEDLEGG

Assay [3] deals with T3, BCL-2 (UniProt P10415 1-217, limits assumed).
T3 construct: Target of the Ki columns
T3 sequence (P10415 1-217 limits assumed): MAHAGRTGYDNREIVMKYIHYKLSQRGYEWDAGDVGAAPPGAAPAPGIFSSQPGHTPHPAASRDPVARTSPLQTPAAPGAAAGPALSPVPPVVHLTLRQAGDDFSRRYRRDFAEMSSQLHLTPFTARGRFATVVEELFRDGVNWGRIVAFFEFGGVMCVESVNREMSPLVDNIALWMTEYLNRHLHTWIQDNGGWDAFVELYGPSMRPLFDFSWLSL

B1: SEQ ID NO: 1753 (peptide)
peptide: Ac-IWIAAALR[R8]IGDAFN[S5]LYA-NH2
modifications: staple 9-16
SMILES: CC[C@H](C)[C@H](NC(C)=O)C(=O)N[C@@H](Cc1c[nH]c2ccccc12)C(=O)N[C@H](C(=O)N[C@@H](C)C(=O)N[C@@H](C)C(=O)N[C@@H](C)C(=O)N[C@@H](CC(C)C)C(=O)N[C@@H](CCCNC(=N)N)C(=O)N[C@]1(C)CCCCCCC=CCCC[C@@](C)(C(=O)N[C@@H](CC(C)C)C(=O)N[C@@H](Cc2ccc(O)cc2)C(=O)N[C@@H](C)C(N)=O)NC(=O)[C@H](CC(N)=O)NC(=O)[C@H](Cc2ccccc2)NC(=O)[C@H](C)NC(=O)[C@H](CC(=O)O)NC(=O)CNC(=O)[C@H]([C@@H](C)CC)NC1=O)[C@@H](C)CC
Take B1: the Ki is 69.9 nM in assay [1], 17.6 nM in assay [2] and 125 nM in assay [3].

Regarding IWIAQALRAIGDAXNAYYA (N-terminal Ac; $r8 at 9 and $ at 16 (crosslinked); Bip at 14; C-terminal NH2) [SEQ ID NO: 1747], the values for the Ki in assay [1], in assay [2] and in assay [3] were 100 nM, 6.5 nM and 114 nM, respectively.

B2: SEQ ID NO: 1760 (peptide)
peptide: Ac-IWIAAALR[R8]IGDAFN[S5]YYD-NH2
modifications: staple 9-16
SMILES: CC[C@H](C)[C@H](NC(C)=O)C(=O)N[C@@H](Cc1c[nH]c2ccccc12)C(=O)N[C@H](C(=O)N[C@@H](C)C(=O)N[C@@H](C)C(=O)N[C@@H](C)C(=O)N[C@@H](CC(C)C)C(=O)N[C@@H](CCCNC(=N)N)C(=O)N[C@]1(C)CCCCCCC=CCCC[C@@](C)(C(=O)N[C@@H](Cc2ccc(O)cc2)C(=O)N[C@@H](Cc2ccc(O)cc2)C(=O)N[C@@H](CC(=O)O)C(N)=O)NC(=O)[C@H](CC(N)=O)NC(=O)[C@H](Cc2ccccc2)NC(=O)[C@H](C)NC(=O)[C@H](CC(=O)O)NC(=O)CNC(=O)[C@H]([C@@H](C)CC)NC1=O)[C@@H](C)CC
Turning to B2, the Ki in assay [1] amounted to 116 nM; in assay [2], 2.2 nM; in assay [3] it was 138 nM.

B3: SEQ ID NO: 1761 (peptide)
peptide: Ac-IWIAAALR[R8]IGDAFN[S5]YYE-NH2
modifications: staple 9-16
SMILES: CC[C@H](C)[C@H](NC(C)=O)C(=O)N[C@@H](Cc1c[nH]c2ccccc12)C(=O)N[C@H](C(=O)N[C@@H](C)C(=O)N[C@@H](C)C(=O)N[C@@H](C)C(=O)N[C@@H](CC(C)C)C(=O)N[C@@H](CCCNC(=N)N)C(=O)N[C@]1(C)CCCCCCC=CCCC[C@@](C)(C(=O)N[C@@H](Cc2ccc(O)cc2)C(=O)N[C@@H](Cc2ccc(O)cc2)C(=O)N[C@@H](CCC(=O)O)C(N)=O)NC(=O)[C@H](CC(N)=O)NC(=O)[C@H](Cc2ccccc2)NC(=O)[C@H](C)NC(=O)[C@H](CC(=O)O)NC(=O)CNC(=O)[C@H]([C@@H](C)CC)NC1=O)[C@@H](C)CC
With B3, the Ki in assay [1] turned out to be 45.4 nM; in assay [2], 1.4 nM; in assay [3] it was 56.4 nM.

B4: SEQ ID NO: 1762 (peptide)
peptide: Ac-IWIAAALR[R8]IGDAFN[S5]YYQ-NH2
modifications: staple 9-16
SMILES: CC[C@H](C)[C@H](NC(C)=O)C(=O)N[C@@H](Cc1c[nH]c2ccccc12)C(=O)N[C@H](C(=O)N[C@@H](C)C(=O)N[C@@H](C)C(=O)N[C@@H](C)C(=O)N[C@@H](CC(C)C)C(=O)N[C@@H](CCCNC(=N)N)C(=O)N[C@]1(C)CCCCCCC=CCCC[C@@](C)(C(=O)N[C@@H](Cc2ccc(O)cc2)C(=O)N[C@@H](Cc2ccc(O)cc2)C(=O)N[C@@H](CCC(N)=O)C(N)=O)NC(=O)[C@H](CC(N)=O)NC(=O)[C@H](Cc2ccccc2)NC(=O)[C@H](C)NC(=O)[C@H](CC(=O)O)NC(=O)CNC(=O)[C@H]([C@@H](C)CC)NC1=O)[C@@H](C)CC
Regarding B4, the Ki was found to be 41.1 nM in assay [1], 4.6 nM in assay [2] and 64.7 nM in assay [3].

B5: SEQ ID NO: 1763 (peptide)
peptide: Ac-IWIAAALR[R8]IGDAFN[S5]YYS-NH2
modifications: staple 9-16
SMILES: CC[C@H](C)[C@H](NC(C)=O)C(=O)N[C@@H](Cc1c[nH]c2ccccc12)C(=O)N[C@H](C(=O)N[C@@H](C)C(=O)N[C@@H](C)C(=O)N[C@@H](C)C(=O)N[C@@H](CC(C)C)C(=O)N[C@@H](CCCNC(=N)N)C(=O)N[C@]1(C)CCCCCCC=CCCC[C@@](C)(C(=O)N[C@@H](Cc2ccc(O)cc2)C(=O)N[C@@H](Cc2ccc(O)cc2)C(=O)N[C@@H](CO)C(N)=O)NC(=O)[C@H](CC(N)=O)NC(=O)[C@H](Cc2ccccc2)NC(=O)[C@H](C)NC(=O)[C@H](CC(=O)O)NC(=O)CNC(=O)[C@H]([C@@H](C)CC)NC1=O)[C@@H](C)CC
In the case of B5, the values for the Ki in assay [1], in assay [2] and in assay [3] were 36 nM, 4.7 nM and 62.4 nM, respectively.

B6: SEQ ID NO: 1745 (peptide)
peptide: Ac-IWIAQALR[R8]IGDA[Phe(4-tBu)]N[S5]YYA-NH2
modifications: staple 9-16
SMILES: CC[C@H](C)[C@H](NC(C)=O)C(=O)N[C@@H](Cc1c[nH]c2ccccc12)C(=O)N[C@H](C(=O)N[C@@H](C)C(=O)N[C@@H](CCC(N)=O)C(=O)N[C@@H](C)C(=O)N[C@@H](CC(C)C)C(=O)N[C@@H](CCCNC(=N)N)C(=O)N[C@]1(C)CCCCCCC=CCCC[C@@](C)(C(=O)N[C@@H](Cc2ccc(O)cc2)C(=O)N[C@@H](Cc2ccc(O)cc2)C(=O)N[C@@H](C)C(N)=O)NC(=O)[C@H](CC(N)=O)NC(=O)[C@H](Cc2ccc(C(C)(C)C)cc2)NC(=O)[C@H](C)NC(=O)[C@H](CC(=O)O)NC(=O)CNC(=O)[C@H]([C@@H](C)CC)NC1=O)[C@@H](C)CC
On to B6, for which the Ki amounted to 154 nM in assay [1], 21.2 nM in assay [2] and 158 nM in assay [3].

B7: SEQ ID NO: 1748 (peptide)
peptide: Ac-IWIAAALR[R8]IGDAFD[S5]YYA-NH2
modifications: staple 9-16
SMILES: CC[C@H](C)[C@H](NC(C)=O)C(=O)N[C@@H](Cc1c[nH]c2ccccc12)C(=O)N[C@H](C(=O)N[C@@H](C)C(=O)N[C@@H](C)C(=O)N[C@@H](C)C(=O)N[C@@H](CC(C)C)C(=O)N[C@@H](CCCNC(=N)N)C(=O)N[C@]1(C)CCCCCCC=CCCC[C@@](C)(C(=O)N[C@@H](Cc2ccc(O)cc2)C(=O)N[C@@H](Cc2ccc(O)cc2)C(=O)N[C@@H](C)C(N)=O)NC(=O)[C@H](CC(=O)O)NC(=O)[C@H](Cc2ccccc2)NC(=O)[C@H](C)NC(=O)[C@H](CC(=O)O)NC(=O)CNC(=O)[C@H]([C@@H](C)CC)NC1=O)[C@@H](C)CC
On to B7, for which the Ki in assay [1] was 25.9 nM; in assay [2], 1.5 nM; in assay [3] it was 35.3 nM.

B8: SEQ ID NO: 1751 (peptide)
peptide: Ac-IWIAAALR[R8]IGDAFS[S5]YYA-NH2
modifications: staple 9-16
SMILES: CC[C@H](C)[C@H](NC(C)=O)C(=O)N[C@@H](Cc1c[nH]c2ccccc12)C(=O)N[C@H](C(=O)N[C@@H](C)C(=O)N[C@@H](C)C(=O)N[C@@H](C)C(=O)N[C@@H](CC(C)C)C(=O)N[C@@H](CCCNC(=N)N)C(=O)N[C@]1(C)CCCCCCC=CCCC[C@@](C)(C(=O)N[C@@H](Cc2ccc(O)cc2)C(=O)N[C@@H](Cc2ccc(O)cc2)C(=O)N[C@@H](C)C(N)=O)NC(=O)[C@H](CO)NC(=O)[C@H](Cc2ccccc2)NC(=O)[C@H](C)NC(=O)[C@H](CC(=O)O)NC(=O)CNC(=O)[C@H]([C@@H](C)CC)NC1=O)[C@@H](C)CC
On to B8, for which the Ki turned out to be 44.1 nM in assay [1], 8 nM in assay [2] and 67.5 nM in assay [3].

B9: SEQ ID NO: 1749 (peptide)
peptide: Ac-IWIAAALR[R8]IGDAFE[S5]YYA-NH2
modifications: staple 9-16
SMILES: CC[C@H](C)[C@H](NC(C)=O)C(=O)N[C@@H](Cc1c[nH]c2ccccc12)C(=O)N[C@H](C(=O)N[C@@H](C)C(=O)N[C@@H](C)C(=O)N[C@@H](C)C(=O)N[C@@H](CC(C)C)C(=O)N[C@@H](CCCNC(=N)N)C(=O)N[C@]1(C)CCCCCCC=CCCC[C@@](C)(C(=O)N[C@@H](Cc2ccc(O)cc2)C(=O)N[C@@H](Cc2ccc(O)cc2)C(=O)N[C@@H](C)C(N)=O)NC(=O)[C@H](CCC(=O)O)NC(=O)[C@H](Cc2ccccc2)NC(=O)[C@H](C)NC(=O)[C@H](CC(=O)O)NC(=O)CNC(=O)[C@H]([C@@H](C)CC)NC1=O)[C@@H](C)CC
For the molecule B9, the inhibition constant Ki amounted to 17.9 nM in assay [1], 1.8 nM in assay [2] and 30.7 nM in assay [3].

B10: SEQ ID NO: 1750 (peptide)
peptide: Ac-IWIAAALR[R8]IGDAFQ[S5]YYA-NH2
modifications: staple 9-16
SMILES: CC[C@H](C)[C@H](NC(C)=O)C(=O)N[C@@H](Cc1c[nH]c2ccccc12)C(=O)N[C@H](C(=O)N[C@@H](C)C(=O)N[C@@H](C)C(=O)N[C@@H](C)C(=O)N[C@@H](CC(C)C)C(=O)N[C@@H](CCCNC(=N)N)C(=O)N[C@]1(C)CCCCCCC=CCCC[C@@](C)(C(=O)N[C@@H](Cc2ccc(O)cc2)C(=O)N[C@@H](Cc2ccc(O)cc2)C(=O)N[C@@H](C)C(N)=O)NC(=O)[C@H](CCC(N)=O)NC(=O)[C@H](Cc2ccccc2)NC(=O)[C@H](C)NC(=O)[C@H](CC(=O)O)NC(=O)CNC(=O)[C@H]([C@@H](C)CC)NC1=O)[C@@H](C)CC
Turning to B10, the results for the Ki in assay [1], in assay [2] and in assay [3] were 36.5 nM, 4.9 nM and 71.6 nM, respectively.

B11: SEQ ID NO: 1752 (peptide)
peptide: Ac-IWIAAALR[R8]IGDAFH[S5]YYA-NH2
modifications: staple 9-16
SMILES: CC[C@H](C)[C@H](NC(C)=O)C(=O)N[C@@H](Cc1c[nH]c2ccccc12)C(=O)N[C@H](C(=O)N[C@@H](C)C(=O)N[C@@H](C)C(=O)N[C@@H](C)C(=O)N[C@@H](CC(C)C)C(=O)N[C@@H](CCCNC(=N)N)C(=O)N[C@]1(C)CCCCCCC=CCCC[C@@](C)(C(=O)N[C@@H](Cc2ccc(O)cc2)C(=O)N[C@@H](Cc2ccc(O)cc2)C(=O)N[C@@H](C)C(N)=O)NC(=O)[C@H](Cc2c[nH]cn2)NC(=O)[C@H](Cc2ccccc2)NC(=O)[C@H](C)NC(=O)[C@H](CC(=O)O)NC(=O)CNC(=O)[C@H]([C@@H](C)CC)NC1=O)[C@@H](C)CC
As to B11, the inhibitory constant (Ki) in assay [1] amounted to 36.3 nM; in assay [2], 8 nM; in assay [3] it was 57.4 nM.
